# Assays:
# TdT [1] = biological target: T1, TdT (Homo sapiens, UniProt P04053); assay: pH regulation of TdT enzyme activity (extension reactions, TBE-Urea gel); format: biochemical
# Procedure: The objective of these experiments is to determine the range of pH in which TdT is active.
# 1. A buffer of 50 mM Tris (base) and 50 mM Boric acid was prepared and its pH (initially at ˜8.5) was adjusted to 6.05, 6.9, 7.93, 8.96, 10.02, and 11.07 using acetic acid and sodium hydroxide. These buffers serve as 2× buffers in the experiments.
# 2. Extension reactions were assembled as follows:
# 3. Each reaction was incubated for 15 minutes and then loaded on a TBE-Urea gel with an unextended initiator for comparison.
# In the following experiment, TdT was incubated at a pH for 15 minutes without the nucleotide or the initiator, it was then combined with the nucleotide and the initiator in such a way that the final pH of the mixture during polymerization would be different from that of the initial 15 min incubation.
# 1. A buffer of 50 mM Tris (base) and 50 mM Boric acid was prepared and its pH (initially at ˜8.5) was adjusted to 6.05, 6.9, 7.93, 8.96, 10.02, and 11.07 using acetic acid and sodium hydroxide. These buffers serve as 2× buffers in the experiment.
# 2. Extension reactions were assembled in two parts:
# Eight different extension reactions were assembled with following pH used for the buffer in part 1 and part 2:
# 3. Both parts of each reaction were incubated for 15 minutes, they were then mixed to form the 20 μl total, then loaded on a TBE-Urea gel: […]
# TdT [2] = biological target: T1, TdT; details: Ashley et al., Virology 77, 367-375 (1977); cited from earlier work
molecule,measurement,setting,value
"TdT: template-independent DNA polymerase which extends single-stranded oligonucleotides (protein, UniProt P04053 1-509, looked up) DNA nucleotidylexotransferase: MDPPRASHLSPRKKRPRQTGALMASSPQDIKFQDLVVFILEKKMGTTRRAFLMELARRKGFRVENELSDSVTHIVAENNSGSDVLEWLQAQKVQVSSQPELLDVSWLIECIRAGKPVEMTGKHQLVVRRDYSDSTNPGPPKTPPIAVQKISQYACQRRTTLNNCNQIFTDAFDILAENCEFRENEDSCVTFMRAASVLKSLPFTIISMKDTEGIPCLGSKVKGIIEEIIEDGESSEVKAVLNDERYQSFKLFTSVFGVGLKTSEKWFRMGFRTLSKVRSDKSLKFTRMQKAGFLYYEDLVSCVTRAEAEAVSVLVKEAVWAFLPDAFVTMTGGFRRGKKMGHDVDFLITSPGSTEDEEQLLQKVMNLWEKKGLLLYYDLVESTFEKLRLPSRKVDALDHFQKCFLIFKLPRQRVDSDQSSWQEGKTWKAIRVDLVLCPYERRAFALLGWTGSRQFERDLRRYATHERKMILDNHALYDKTKRIFLKAESEEEIFAHLGLDYIEPWERNA",TdT enzymatic activity,TdT [1]; pH ranges above 6 and below 11,highly active
same,TdT enzymatic activity,TdT [1]; pH ranges below 6 and above 11,substantially inactivated
same,optimal pH,TdT [2],6.85

# Source: patent US10870872B2, “Enzymatic nucleic acid synthesis” (President and Fellows of Harvard College, priority 2016, dated 2020)
